Measured values taken from US20190000969A1 (AbbVie / Abbott, published 2019).
Substitutions are numbered along the chain they refer to.

T1: human UPK1B (hUPK1B) protein, full length, on the cell surface (human, UniProt O75841 1-260)
T1 sequence: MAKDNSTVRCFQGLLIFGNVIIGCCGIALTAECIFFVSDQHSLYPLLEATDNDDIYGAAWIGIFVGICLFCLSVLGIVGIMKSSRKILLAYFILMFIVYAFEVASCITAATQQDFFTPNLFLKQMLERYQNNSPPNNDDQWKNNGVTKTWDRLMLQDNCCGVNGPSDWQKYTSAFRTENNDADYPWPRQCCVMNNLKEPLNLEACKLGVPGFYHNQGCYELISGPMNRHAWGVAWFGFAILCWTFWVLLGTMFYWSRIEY

T2: hUPK1B(108-229)-Fc, second extracellular domain of human UPK1B fused to human IgG2 Fc (human, UniProt O75841 108-229)
T2 construct: Expressed behind an IgK signal peptide, which is not part of the secreted protein; also called hUPK1B-Fc; Fc-fusion human UPK1B protein; not shown: human IgG2 Fc protein
T2 sequence: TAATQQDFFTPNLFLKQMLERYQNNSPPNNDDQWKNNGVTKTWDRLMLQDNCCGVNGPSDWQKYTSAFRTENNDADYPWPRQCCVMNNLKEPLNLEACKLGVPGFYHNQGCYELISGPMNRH

B1: SC115.90 (antibody, IgG2a, V domains shown)
VH: DVKLVESGGGFVRLGGSLKLSCAASGFTFNNYAMSWVRQTPEKRLEWVAIISRGGTKNYYPDSVKGRFTISRDNAKNTLYLQMSSLRSEDTAMYYCARLYYDDYEGYMDYWGQGTSVTVSS
VL: DIVLTQSPASLAVSLGQRATISCRASKSVSTSGYSYMHWYQQKPGQPPKLLIYLASNLESGVPARFSGSGSGTDFTLNIHPVEEEDAATYYCQHSRELPLTFGAGTRLELK
B2: SC115.36 (antibody, IgG1, V domains shown)
VH: EVQLQQSGTVVARPGASVKMSCKASGYSFTSYWMHWIKQRPGQGLDWIGSIYPGHSDATYNQRFKGKAKLTAVTSANTAYMELSSLTNEDSAVYYCSRSDGYYRGMAMDYWGQGTSVTVSS
VL: DIVLTQSPASLAVSLGQRATISCRASESVDGYGNSFMHWYRQKPGQPPKLLIYRASNLESGIPARFSGSGSRTDFALTINPVEADDVATYYCQQSYGDPRTFGGGTNLEIK
B3: SC115.26 (antibody, V domains shown)
VH: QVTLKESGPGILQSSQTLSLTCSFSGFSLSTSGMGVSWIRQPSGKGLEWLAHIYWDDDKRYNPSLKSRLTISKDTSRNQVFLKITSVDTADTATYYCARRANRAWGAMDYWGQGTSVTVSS
VL: DIVMSQSPSSLAVSVGEKVTMSCKSSQSLLYSSNQKNFLAWYQQKPGQSPKLLIYWASTRESGVPDRFTGSGSGTDFTLTISSVKAEDLAIYYCQQYYYYPYTFGGGTKLEIK
B4: SC115.46 (antibody, V domains shown)
VH: QVQLQQSGPQLVRPGASVKISCKASGYSFTTSWMHWMKQRPGQGLEWIGMIDPSDSETGLNQIFRDKATLTVDKYSSTAYMQLSSPTSEDSAVYYCARRGRFSYDYGGFAYWGQGTLVTVSA
VL: DIVMTQSPSSLTVTAGEKVTMSCKSSQSLLNSGNQKNYLTWYQQKPGQTPKLLIYWASTRESGVPDRFTGSGSGTDFTLTISSVQAEDLAVYYCQNDYSNPFTFGGGTKLEIK
B5: SC115.32 (antibody, IgG1, V domains shown)
VH: QVQLQQPGAELVRPGSSVKLSCKASGYTFNSYWMHWVKQRPIKGLEWIGNIDPSDGETYYNQAFKDKATLTVDKSSSTAYMQLSRLTSEDSAVYYCARRGTAQATTWLGYWGQGTLVTVSA
VL: B4 VL with T49P, N100Y, G106S
B6: SC115.94 (antibody, IgG2a, V domains shown)
VH: QVQLQLSGAELVKPGASVKISCKASGYAFSSYWMNWVKQRPGKGLEWIGQIYPGDADTHYNGKFKGKATLTADKSSSTAYMQLSSLTSEDSAVYFCARLKLGRFDYWGQGTTLTVSS
VL: QLVLTQSSSASFSLGASAKLTCTLSSQHSTYTIEWYQQQPLKPPKYVMELKKDGSHNTGDGIPDRFSGSSSGADRYLSISNIQPEDEAIYICGVGYTIKEQFVYVFGGGTKVTVL
B7: SC115.84 (antibody, IgG2b, V domains shown)
VH: QVQLQQSGAELVKPGASVKISCETSGYTFSSYWMNWVKQRPGKGLEWIGQIDPGDGDTNYNGKFRGKATLTADKSSSTAYMQLNTLTSEDSAVYFCARSRQLRLDYWGQGTTLTVSS
VL: QIVLTQSPAIMSASPGERVTMTCSASSSVSSFYLYWYQQKSGSSPKVWIYSTSNLASGVPTRFSGSGSGTSYSLTINSMEAEDAATYYCQQWSSNPLTFGAGTKLELK
B8: chimSC115.18 (Fab, V domains shown)
VH: QVQLQQPGAELVRPGSSVKLSCKASGYTFTSYWMHWVKQRPMQGLEWIGNIDPSDSEIYYNQKFKDKATLTVDKSSGTAYMQLSSLTSEDSAVYYCARRSGSRDYYGMDDWGQGTSVTVSS
VL: B4 VL with S22R, T49P, Y55S, E61D, G74R, T78I, N100Y, F102L, G106A, I112L
notes: also called Fab fragment (papain-digested) of chimeric SC115.18; parental chimeric antibody
B9: chimSC115.9 (Fab, V domains shown)
VH: QVQLQQPGAELVKPGASVKMSCKASGYTFTSNWMHWVKQRPGQGLEWIGVIDPSDTYISYNQKFKGKATLTVDTSSSTAYMQLSSLTSEDSAVYYCTRRDSGWYFDVWGAGTTVTVSS
VL: B4 VL with T49P, N100Y, F102L, G106A, I112L
notes: also called Fab fragment (papain-digested) of chimeric SC115.9; parental chimeric antibody
B10: SC115.4 (antibody, IgG2a, V domains shown)
VH: DVKLVESGGGLVKLGGSLKLSCAASGFTFSSYPMSWVRQTPEMRLEWVATISSGGGITYYPDSVKGRFTISRDNAKNTLSLQMNSLRSEDTAMYYCSRLYYSDYEGYMDYWGQGTSVTVSS
VL: B1 VL with A88S, R107K
B11: SC115.51 (antibody, V domains shown)
VH: QVQLKQSGPGLVQPSQSLSITCTVSGFSLTNYGIHWVRQSPGKGLEWLGVIWRGGSTDYNAGFMSRLTITKDNSKSQVFFKMNSLQGDDTAIYYCAKNTGRGALDYWGQGTTLTVSS
VL: DIVMTQSPSSLAVTAGEKVTMRCKSSQSLLWSVNQNNYLSWYQQKQGQPPKLLISGASIRESWVPDRFTGSGSGTDFTLTISNVHAEDLAVYYCQHNHGSFLPYTFGGGTKLEIK
B12: SC115.19 (antibody, IgG2a, V domains shown)
VH: QITLKESGPGILQPSQTLSLTCSFSGFSLSTSGMGVGWIRQPSGKGLEWLANIWWNDDQYYNPPLKSRLTVSKDTSKTQVFLKIAHVDTADTATYYCARIYSGNYGAMDYWGQGTSVTVSS
VL: DIVMTQAAFSNPVTLGTSASISCRSSKSLLHSNGITYLYWYLQKPGQSPQLLIYQMSSLASGVPDRFSSSGSGTDFTLRISRVEAEDVGVYYCAQSLELPYTFGGGTKLEIK
B13: SC115.1 (antibody, IgG1, V domains shown)
VH: QVLLQQSGPQLVRPGASVKISCKASGYSFTSYWIHWVKQRPGQGLEWIGMIDPSDSETSFNQKFKDKATLTVDKSSSTAYMQLSSPTSEDSAVYYCARSYYASRFDYWGQGATLTVSS
VL: DIVMTQSPSSLAMSVGQKVTMNCKSSQSLLNSNNQKNYLAWYQQKPGQSPKLLVYFASTRESGVPDRFIGSGSGTDFTLTITSVQAEDLADYFCLQHYGTPLTFGAGTKLELK
B14: SC115.13 (antibody, IgG1, V domains shown)
VH: QILLVQSGPELKKPGETVKISCKASGYTFTNYGMNWVKQAPGKGLKWMGWINTKTGVPTYPDDFKGRFAFSLETSASTAYLQISNLKDEDTATYFCTRGESFFSFAFWGQGTLVAVSA
VL: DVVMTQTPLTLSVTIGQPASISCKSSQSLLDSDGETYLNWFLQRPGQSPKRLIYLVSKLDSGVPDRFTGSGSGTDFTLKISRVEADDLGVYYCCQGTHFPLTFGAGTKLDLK
B15: SC115.52 (antibody, IgG1, V domains shown)
VH: B14 VH with Y32L, K54Y, V57D, P61V, D88N, S101K, F103Y, F107Y, A115T
VL: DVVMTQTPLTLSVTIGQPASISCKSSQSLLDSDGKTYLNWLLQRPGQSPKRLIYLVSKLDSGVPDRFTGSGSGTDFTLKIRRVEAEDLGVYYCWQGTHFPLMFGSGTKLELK
B16: SC115.18 (antibody, V domains shown)
VH: B8 VH
VL: B4 VL with S22R, T49P, Y55S, E61D, G74R, T78I, N100Y, F102L, G106A, I112L
B17: SC115.7 (antibody, V domains shown)
VH: EVQLQQSGAELVRPGASVKLSCTASGFNIKDSFIHWVKKRPEEGLEWIGWIDPEDGETKYAPKFQDKATITADTSSNTAYLQLSSLTSEDTAIYYCARRERFYGIYYALDYWGQGTSVTVSS
VL: B4 VL with P46L, T49P, G106S
B18: SC115.9 (antibody, IgG2a, V domains shown)
VH: B9 VH
VL: B4 VL with T49P, N100Y, F102L, G106A, I112L
B19: SC115.48 (antibody, V domains shown)
VH: EVQLVETGGGLVQPKGSLKLSCAASGLSFNTYAMNWVRQAPGKGLEWVARIRSKSNNYATYYADSVKDRFTISRDDSQSMLYLQMNNLKTEDTAMYYCVTSLFDYWGQGTTLTVSS
VL: B6 VL with L4V, N57S, I82M, Y96E, T97A
B20: SC115.65 (antibody, IgG2a, V domains shown)
VH: EVQLQQSGPELVKPGASVKISCKASGYSFTGYFMNWVMQSHGKSLEWIGRINPYNGDTFYNQKFKGKATLTVDKSSNTAHMELRSLASEDSGVYYCAGHNNYGVSWGQGTTLTVSS
VL: DVLMTQTPLSLPVSLGDQASISCRSSQIIVHSNGNTYLEWYLQKPGQSPKLLIYKVSNRFSGVPDRFSGSGSGTDFTLKISRVEAEDLGVYYCFQGSHLPYTFGGGTKLEIK

Each binder was assayed against T1, human UPK1B (hUPK1B) protein, full … (assay: cell-based or functional assay).
In the case of B1, the “IVK, HxUPK1B, 250pM, fz, % live [cont.]” value is reported as 104 % live.
B2 was tested, and the “IVK, HxUPK1B, 250pM, fz, % live [cont.]” value was 17.2 % live.
With B3 the “IVK, HxUPK1B, 250pM, fz, % live [cont.]” value was 105 % live.
With B4 the “IVK, HxUPK1B, 250pM, fz, % live [cont.]” value was 19.3 % live.
For B5, the “IVK, HxUPK1B, 250pM, fz, % live [cont.]” value was 28.2 % live.
With B6 the “IVK, HxUPK1B, 250pM, fz, % live [cont.]” value was 55.7 % live.
B7 was tested, and the “IVK, HxUPK1B, 250pM, fz, % live [cont.]” value was 25.6 % live.

The binders below were run against T2, hUPK1B(108-229)-Fc, second … (assay: SPR, Biacore T200; human UPK1B Fc-fusion captured on anti-human chip, papain-digested Fab as analyte, 1:1 Langmuir fit).
Description: The kinetic characteristics and affinities of the anti-UPK1B antibodies for human UPK1B protein was determined by surface plasmon resonance using a Biacore T200 (GE Healthcare). An anti-human antibody capture kit was used to immobilize anti-human antibodies on a CM5 biosensor chip. Then, in independent flow cells, CHO expressed Fc-fusion human UPK1B protein was immobilized. Prior to each anti-UPK1B antibody Fab fragment injection cycle, the human Fc-fusion protein was captured at a concentration of 1 μg/mL on the surface with a contact time of 12 seconds and a flow rate of 20 μL/min. […] The CM5 anti-human chip surface was regenerated with 1 min. contact time of 10 mM Glycine, pH 1.7 at 10 μL/min. following each cycle.
The data was processed by subtracting a control irrelevant human Fc-fusion protein surface response from the specific human UPK1B Fc-fusion protein surface response and data was truncated to the association and dissociation phase. The resulting response curves were used to evaluate the kinetic characteristics of the antibodies for experiments done on the Biacore T200. Association and dissociation data was fit with a 1:1 langmuir binding model using the Biacore T200 Evaluation Software (GE Healthcare).
B8 showed a Kd of 3.6 nM.
B9 showed a Kd of 6.4 nM.

Biological target: T1, human UPK1B (hUPK1B) protein, full …
Assay: cell-based or functional assay
Remark: another data set of the same source
B10 was tested, and the “IVK, HxUPK1B, 250pM, fz, % live” value was 89 % live.
With B11 the “IVK, HxUPK1B, 250pM, fz, % live” value was 100 % live.
B12 was tested, and the “IVK, HxUPK1B, 250pM, fz, % live” value was 20.4 % live.
For B13, the “IVK, HxUPK1B, 250pM, fz, % live” value was 23.1 % live.
B14 was tested, and the “IVK, HxUPK1B, 250pM, fz, % live” value was 99.4 % live.
For B15, the “IVK, HxUPK1B, 250pM, fz, % live” value was 103 % live.
With B16 the “IVK, HxUPK1B, 250pM, fz, % live” value was 22.9 % live.
With B17 the “IVK, HxUPK1B, 250pM, fz, % live” value was 48.7 % live.
B18 was tested, and the “IVK, HxUPK1B, 250pM, fz, % live” value was 17.6 % live.
B19 was tested, and the “IVK, HxUPK1B, 250pM, fz, % live” value was 22.2 % live.
With B20 the “IVK, HxUPK1B, 250pM, fz, % live” value was 98.3 % live.
